Data published in publication PMC4175184, “Structure and function of cohesin’s Scc3/SA regulatory subunit” (Febs Letters, 2014).

Target: T1, S. cerevisiae Scc3, full-length protein (S. cerevisiae, UniProt P40541 1-1150)
T1 construct: Scc3, S. cerevisiae (UniProt SCC3_YEAST, P40541), full-length / intact protein; also called Sc Scc3; intact Scc3 protein; source: E. coli BL21(DE3) RIPL, purified (Talon beads, Superdex 200)
T1 sequence (looked up): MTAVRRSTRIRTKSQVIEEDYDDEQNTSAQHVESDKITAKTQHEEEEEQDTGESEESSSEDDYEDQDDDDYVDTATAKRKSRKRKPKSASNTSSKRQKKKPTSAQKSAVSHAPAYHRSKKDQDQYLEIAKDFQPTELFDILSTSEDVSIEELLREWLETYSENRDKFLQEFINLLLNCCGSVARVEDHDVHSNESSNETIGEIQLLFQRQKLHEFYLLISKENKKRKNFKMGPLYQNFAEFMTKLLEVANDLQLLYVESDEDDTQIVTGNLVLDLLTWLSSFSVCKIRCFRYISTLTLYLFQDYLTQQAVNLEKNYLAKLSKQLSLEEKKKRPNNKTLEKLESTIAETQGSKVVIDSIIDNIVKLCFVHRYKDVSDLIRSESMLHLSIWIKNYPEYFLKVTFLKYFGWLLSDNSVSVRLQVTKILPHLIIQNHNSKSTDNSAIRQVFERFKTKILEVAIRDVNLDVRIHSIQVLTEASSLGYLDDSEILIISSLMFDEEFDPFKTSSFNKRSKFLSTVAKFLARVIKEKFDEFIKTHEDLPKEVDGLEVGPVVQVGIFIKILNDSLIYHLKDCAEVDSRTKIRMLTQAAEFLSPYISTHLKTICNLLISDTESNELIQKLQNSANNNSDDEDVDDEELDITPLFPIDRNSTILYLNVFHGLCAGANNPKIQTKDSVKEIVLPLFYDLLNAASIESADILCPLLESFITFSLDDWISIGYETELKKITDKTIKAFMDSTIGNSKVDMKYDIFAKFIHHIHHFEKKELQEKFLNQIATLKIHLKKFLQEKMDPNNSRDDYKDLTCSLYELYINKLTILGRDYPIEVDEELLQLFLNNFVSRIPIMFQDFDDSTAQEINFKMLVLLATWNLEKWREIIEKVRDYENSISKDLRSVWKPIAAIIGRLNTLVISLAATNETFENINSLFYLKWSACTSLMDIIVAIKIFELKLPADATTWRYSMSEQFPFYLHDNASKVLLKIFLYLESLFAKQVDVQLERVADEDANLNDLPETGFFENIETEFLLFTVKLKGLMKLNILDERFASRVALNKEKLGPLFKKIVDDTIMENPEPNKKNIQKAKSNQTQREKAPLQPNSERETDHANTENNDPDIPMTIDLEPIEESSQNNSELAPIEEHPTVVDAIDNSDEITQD
Test: pull-down; two differently tagged versions of Scc1 (259–451) in the presence of intact Scc3 protein; 5 μM of each in TAP buffer, resin 2 h at 4 °C (Fig. 2-fig^1C)
Conditions: both partners purified

B1: S. cerevisiae Scc1 (259–451), two differently tagged versions (domain or fragment, UniProt Q12158 259-451, looked up)
chain: DDDNSVEQGRRLGESIMSEEPTDFGFDLDIEKEAPAGNIDTITDAMTESQPKQTGTRRNSKLLNTKSIQIDEETENSESIASSNTYKEERSNNLLTPQPTNFTTKRLWSEITESMSYLPDPILKNFLSYESLKKRKIHNGREGSIEEPELNVSLNLTDDVISNAGTNDNSFNELTDNMSDFVPIDAGLNEAPF
notes: source: E. coli BL21(DE3) RIPL, purified (Talon beads, Superdex 200)
- binding result: binds
